For two substances, fold β-Gal activity against GmHD-ZIP III-2::ZPR3b and GmHD-ZIP III-2::ZPR3c and fold β-Gal activity against any of the experimental pairs results are on record in paper PMC6412583.

Assay [1] deals with GmZPR3d (soybean (Glycine max)). As to the kind of experiment: two-hybrid; quantitative β-gal assay of mated yeast cells with ONPG as substrate, Miller's units from OD420, in triplicate; product in test samples almost 20 h after substrate addition.
The target in assay [2] is T (control protein of the yeast two-hybrid kit, pGBKT7-T as printed). The assay is described as above.

Substance GmHD-ZIP III-2 (natural protein) displayed a fold β-Gal activity against GmHD-ZIP III-2::ZPR3b and GmHD-ZIP III-2::ZPR3c in assay [1] of 7 fold.

“53 (positive control protein of the yeast two-hybrid kit, pGADT7-53 as printed) (domain or fragment)” returned a fold β-Gal activity against any of the experimental pairs in assay [2] of 14 fold.
